# Assay results: patent publication US20250084179A1 (Xencor, published 2025)
# T1: TROP2 (UniProt P09758 27-274, limits assumed)
# T1 construct: also called tumor-associated calcium signal transducer 2; TACSTD2
# T1 sequence (looked up): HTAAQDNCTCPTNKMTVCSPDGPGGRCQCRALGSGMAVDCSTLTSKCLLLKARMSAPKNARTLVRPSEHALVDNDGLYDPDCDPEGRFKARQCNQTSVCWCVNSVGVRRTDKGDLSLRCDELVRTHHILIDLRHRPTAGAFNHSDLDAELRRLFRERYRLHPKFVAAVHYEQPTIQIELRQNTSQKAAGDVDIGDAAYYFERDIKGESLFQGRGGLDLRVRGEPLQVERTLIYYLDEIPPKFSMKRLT
# T2: Cyno TROP2 (Macaca fascicularis, UniProt A0A2K5UE71)
# T2 construct: Construct used in the measurement is not described; also called cynomolgus TROP2
# T2 sequence (antigen): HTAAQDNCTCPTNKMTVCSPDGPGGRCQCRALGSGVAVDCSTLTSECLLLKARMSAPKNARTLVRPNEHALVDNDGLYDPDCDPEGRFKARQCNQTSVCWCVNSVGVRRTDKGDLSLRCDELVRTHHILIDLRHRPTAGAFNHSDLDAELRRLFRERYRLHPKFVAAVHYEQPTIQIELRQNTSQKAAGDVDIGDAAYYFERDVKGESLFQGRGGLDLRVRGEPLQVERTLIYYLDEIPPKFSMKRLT
# B1: 1F11-1A3.315[Trop2]_H1.1_L1 (antibody, V domains shown)
# VH: QVQLVQSGAEVKKPGASVKVSCKASGYTLTRYYMHWVRQAPGQGLEWMGIINPGGGSTGYAQKFQGRVTMTRDTSTSTVYMELSSLRSEDTAVYYCARDDVVAADVFDYWGQGTLVTVSS
# VL: not shown
# B2: 1F11-1A3.315[Trop2]_H1.17_L1 (antibody, V domains shown)
# VH: QVQLVQSGAEVKKPGASVKVSCKASGYTLTRYYMHWVRQAPGQGLEWMGIIEPGGGSTGYAQKFQGRVTMTRDTSTSTVYMELSSLRSEDTAVYYCARDDVVKADVFDYWGQGTLVTVSS
# VL: not shown
# B3: 1F11-1A3.315[Trop2]_H1.7_L1 (antibody, V domains shown)
# VH: QVQLVQSGAEVKKPGASVKVSCKASGYTLTRYYMHWVRQAPGQGLEWMGIINPGGGSTTYAQKFQGRVTMTRDTSTSTVYMELSSLRSEDTAVYYCARDDVVAADVFDYWGQGTLVTVSS
# VL: not shown
# B4: 1F11-1A3.315[Trop2]_H1.3_L1 (antibody, V domains shown)
# VH: QVQLVQSGAEVKKPGASVKVSCKASGYTFTRYYMHWVRQAPGQGLEWMGIINPGGGSTTYAQKFQGRVTMTRDTSTSTVYMELSSLRSEDTAVYYCARDDVVAADVFDYWGQGTLVTVSS
# VL: not shown
# B5: 1F11-1A3.315[Trop2]_H1.9_L1 (antibody, V domains shown)
# VH: QVQLVQSGAEVKKPGASVKVSCKASGYTLTRYYMHWVRQAPGQGLEWMGIINPGGGSTGYAQKFQGRVTMTRDTSTSTVYMELSSLRSEDTAVYYCARDDVVKADVFDYWGQGTLVTVSS
# VL: not shown
# B6: 1F11-1A3.315[Trop2]_H1.22_L1 (antibody, V domains shown)
# VH: QVQLVQSGAEVKKPGASVKVSCKASGYTLTRYYMHWVRQAPGQGLEWMGIIEPGGGSTSYAQKFQGRVTMTRDTSTSTVYMELSSLRSEDTAVYYCARDDVTKADVFDYWGQGTLVTVSS
# VL: not shown
# B7: 1F11-1A3.315[Trop2]_H1.23_L1 (antibody, V domains shown)
# VH: QVQLVQSGAEVKKPGASVKVSCKASGYTFTRYYVHWVRQAPGQGLEWMGIINPGGGSTGYAQKFQGRVTMTRDTSTSTVYMELSSLRSEDTAVYYCARDDVVAADVFDYWGQGTLVTVSS
# VL: not shown
# B8: 1F11-1A3.315[Trop2]_H1.20_L1 (antibody, V domains shown)
# VH: QVQLVQSGAEVKKPGASVKVSCKASGYTLTRYYMHWVRQAPGQGLEWMGIIEPGGGSTSYAQKFQGRVTMTRDTSTSTVYMELSSLRSEDTAVYYCARDDVTAADVFDYWGQGTLVTVSS
# VL: not shown
# B9: 1F11-1A3.315[Trop2]_H1.24_L1 (antibody, V domains shown)
# VH: QVQLVQSGAEVKKPGASVKVSCKASGYTFTRYYMHWVRQAPGQGLEWMGIINPGGGSTDYAQKFQGRVTMTRDTSTSTVYMELSSLRSEDTAVYYCARDDVVAADVFDYWGQGTLVTVSS
# VL: not shown
# B10: 1F11-1A3.315[Trop2]_H1.8_L1 (antibody, V domains shown)
# VH: QVQLVQSGAEVKKPGASVKVSCKASGYTLTRYYMHWVRQAPGQGLEWMGIINPGGGSTGYAQKFQGRVTMTRDTSTSTVYMELSSLRSEDTAVYYCARDDVTAADVFDYWGQGTLVTVSS
# VL: not shown
# B11: 1F11-1A3.315[Trop2]_H1.5_L1 (antibody, V domains shown)
# VH: QVQLVQSGAEVKKPGASVKVSCKASGYTFTRYYMHWVRQAPGQGLEWMGIINPGGGSTGYAQKFQGRVTMTRDTSTSTVYMELSSLRSEDTAVYYCARDDVVKADVFDYWGQGTLVTVSS
# VL: not shown
# B12: 1F11-1A3.315[Trop2]_H1.14_L1 (antibody, V domains shown)
# VH: QVQLVQSGAEVKKPGASVKVSCKASGYTFTRYYMHWVRQAPGQGLEWMGIINPGGGSTTYAQKFQGRVTMTRDTSTSTVYMELSSLRSEDTAVYYCARDDVVKADVFDYWGQGTLVTVSS
# VL: not shown
# B13: 1F11-1A3.315[Trop2]_H1.16_L1 (antibody, V domains shown)
# VH: QVQLVQSGAEVKKPGASVKVSCKASGYTLTRYYMHWVRQAPGQGLEWMGIIEPGGGSTGYAQKFQGRVTMTRDTSTSTVYMELSSLRSEDTAVYYCARDDVTAADVFDYWGQGTLVTVSS
# VL: not shown
# B14: 1F11-1A3.315[Trop2]_H1.21_L1 (antibody, V domains shown)
# VH: QVQLVQSGAEVKKPGASVKVSCKASGYTLTRYYMHWVRQAPGQGLEWMGIIEPGGGSTSYAQKFQGRVTMTRDTSTSTVYMELSSLRSEDTAVYYCARDDVVKADVFDYWGQGTLVTVSS
# VL: not shown
# B15: 1F11-1A3.315[Trop2]_H1.2_L1 (antibody, V domains shown)
# VH: QVQLVQSGAEVKKPGASVKVSCKASGYTFTRYYMHWVRQAPGQGLEWMGIIEPGGGSTGYAQKFQGRVTMTRDTSTSTVYMELSSLRSEDTAVYYCARDDVVAADVFDYWGQGTLVTVSS
# VL: not shown
# B16: 1F11-1A3.315[Trop2]_H1.13_L1 (antibody, V domains shown)
# VH: QVQLVQSGAEVKKPGASVKVSCKASGYTFTRYYMHWVRQAPGQGLEWMGIINPGGGSTTYAQKFQGRVTMTRDTSTSTVYMELSSLRSEDTAVYYCARDDVTAADVFDYWGQGTLVTVSS
# VL: not shown
# B17: 1F11-1A3.315[Trop2]_H1.12_L1 (antibody, V domains shown)
# VH: QVQLVQSGAEVKKPGASVKVSCKASGYTFTRYYMHWVRQAPGQGLEWMGIIEPGGGSTGYAQKFQGRVTMTRDTSTSTVYMELSSLRSEDTAVYYCARDDVVKADVFDYWGQGTLVTVSS
# VL: not shown
# B18: 1F11-1A3.315[Trop2]_H1.4_L1 (antibody, V domains shown)
# VH: QVQLVQSGAEVKKPGASVKVSCKASGYTFTRYYMHWVRQAPGQGLEWMGIINPGGGSTGYAQKFQGRVTMTRDTSTSTVYMELSSLRSEDTAVYYCARDDVTAADVFDYWGQGTLVTVSS
# VL: not shown
# B19: 1F11-1A3.315[Trop2]_H1.11_L1 (antibody, V domains shown)
# VH: QVQLVQSGAEVKKPGASVKVSCKASGYTFTRYYMHWVRQAPGQGLEWMGIIEPGGGSTGYAQKFQGRVTMTRDTSTSTVYMELSSLRSEDTAVYYCARDDVTAADVFDYWGQGTLVTVSS
# VL: not shown
# B20: 1F11-1A3.315[Trop2]_H1.18_L1 (antibody, V domains shown)
# VH: QVQLVQSGAEVKKPGASVKVSCKASGYTLTRYYMHWVRQAPGQGLEWMGIIEPGGGSTTYAQKFQGRVTMTRDTSTSTVYMELSSLRSEDTAVYYCARDDVTAADVFDYWGQGTLVTVSS
# VL: not shown
# B21: 1F11-1A3.315[Trop2]_H1.15_L1 (antibody, V domains shown)
# VH: QVQLVQSGAEVKKPGASVKVSCKASGYTFTRYYMHWVRQAPGQGLEWMGIINPGGGSTGYAQKFQGRVTMTRDTSTSTVYMELSSLRSEDTAVYYCARDDVTKADVFDYWGQGTLVTVSS
# VL: not shown
# B22: 1F11-1A3.315[Trop2]_H1.6_L1 (antibody, V domains shown)
# VH: QVQLVQSGAEVKKPGASVKVSCKASGYTLTRYYMHWVRQAPGQGLEWMGIIEPGGGSTGYAQKFQGRVTMTRDTSTSTVYMELSSLRSEDTAVYYCARDDVVAADVFDYWGQGTLVTVSS
# VL: not shown
# Assays:
# TROP2 = biological target: T1, TROP2; assay: not stated; bivalent format
# Cyno TROP2 = biological target: T2, Cyno TROP2; assay: not stated; bivalent format
Binder,Kd (TROP2) [nM],koff (TROP2) [s⁻¹],kon (TROP2) [M⁻¹ s⁻¹],Kd (Cyno TROP2) [nM],koff (Cyno TROP2) [s⁻¹],kon (Cyno TROP2) [M⁻¹ s⁻¹]
B1,2,0.00048,240000,2.7,0.00073,270000
B2,0.62,0.00017,270000,0.81,0.00028,350000
B3,1.9,0.00053,280000,2.8,0.00077,280000
B4,6,0.0012,200000,8.6,0.002,230000
B5,1.7,0.0004,240000,1.4,0.00046,320000
B6,0.55,0.00021,380000,0.7,0.00028,400000
B7,7.2,0.0012,170000,11,0.0026,230000
B8,1.1,0.00035,320000,1.7,0.00059,340000
B9,5.7,0.0013,240000,11,0.0026,250000
B10,2.7,0.0006,230000,3.1,0.00077,250000
B11,3.4,0.00081,240000,4.5,0.0014,320000
B12,2.6,0.00077,290000,3.7,0.0013,360000
B13,1.1,0.00029,270000,1.5,0.00047,310000
B14,1.5,0.00032,210000,0.81,0.00031,390000
B15,2,0.00047,250000,2.5,0.00067,270000
B16,1.7,0.00051,330000,2.8,0.00084,300000
B17,1.3,0.00033,270000,1.1,0.00038,360000
B18,6.7,0.0011,180000,9.4,0.0021,220000
B19,1.5,0.00051,340000,2.6,0.00079,300000
B20,0.66,0.0002,320000,0.93,0.00034,370000
B21,4.1,0.00091,230000,5.1,0.0016,310000
B22,0.77,0.00025,320000,1.5,0.00042,290000
